{"source": "patent US10065989B2", "about": "“Molecular sleds and uses thereof” (The Broad Institute, Inc., priority 2012, dated 2018)", "key": {"lambda DNA": {"system": "lambda DNA", "test": "Single-molecule DNA sliding assay on flow-stretched DNA (TIRF microscopy)", "design": "species or system bacteriophage lambda; one-dimensional diffusion constant: unit not given here", "conditions": "for One-Dimensional Diffusion Constant (mean D1 ± SEM): lambda DNA, low salt 2-6 mM NaCl", "text": "To determine whether AVP-pVIc complexes slide on DNA, Applicants used single-molecule fluorescence microscopy (FIG. 10C) with flow-stretched DNA, (FIG. 10D,E) (Kabata, H. et al. Visualization of single molecules of RNA polymerase sliding along DNA. Science 262, 1561-3 (1993); Harada, Y. et al. Single-molecule imaging of RNA polymerase-DNA interactions in real time. Biophys. J. 76, 709-715 (1999) and Blainey, P. C., van Oijen, A. M., Banerjee, A., Verdine, G. L. & Xie, X. S. A base-excision DNA-repair protein finds intrahelical lesion bases by fast sliding in contact with DNA. Proc Natl Acad Sci USA 103, 5752-7 (2006)). […] Biochemistry 40, 13237-13245 (2001)), and furthermore to diffuse rapidly over tens of thousands of base pairs before dissociating from the DNA. For example, the molecule whose motion is shown in the raw image data in FIG. 12A traveled more than 20,000 base pairs during a 0.9 sec binding event. Despite the optical resolution limit imposed by diffraction, the centroid position of each signal in each frame was determined with 11 nm spatial precision at 3.5 ms time resolution (Gelles, J., Schnapp, B. J. & Sheetz, M. P. Tracking kinesin-driven movements with nanometer-scale precision. Nature 331, 450-3 (1988) and Thompson, R. E., Larson, D. R. & Webb, W. W. Precise nanometer localization analysis for individual fluorescent probes. Biophys J 82, 2775-83 (2002)), FIG. 12B.\nFlow cells containing bacteriophage lambda DNA immobilized at one end were constructed as described previously (Blainey, P. C., van Oijen, A. M., Banerjee, A., Verdine, G. L. & Xie, X. S. A base-excision DNA-repair protein finds intrahelical lesion bases by fast sliding in contact with DNA. Proc Natl Acad Sci USA 103, 5752-7 (2006)). Labeled samples of AVP-pVIc complexes were infused at concentrations of 1-2 nM at rates of 20-50 mL/hour. Flow rates were chosen to drive the longitudinal DNA fluctuation faster than the imaging frame rate (Blainey, P. C., van Oijen, A. M., Banerjee, A., Verdine, G. L. & Xie, X. S. A base-excision DNA-repair protein finds intrahelical lesion bases by fast sliding in contact with DNA. Proc Natl Acad Sci USA 103, 5752-7 (2006)). The assay buffers consisted of 10 mM MES (pH 6.5), 2-25 mM NaCl, 50 μM EDTA, 20 mM ethanol, 5 percent glycerol, and, where indicated in the text, reducing agent (DTT and mercaptoethanol gave equivalent results). “Low salt” measurements were conducted with 2-6 mM NaCl; “high salt” measurements were conducted with 20-25 mM NaCl.\nDue to the speed and duration of sliding by AVP-pVIc complexes, these events were readily identifiable manually. All AVP-pVIc complex DNA-binding events noted were included in the analyses. Once events had been identified, signals were tracked using Gaussian centroid determination in the Matlab environment. Molecular trajectories were analyzed in Matlab by methods similar to those previously published (Blainey, P. C., van Oijen, A. M., Banerjee, A., Verdine, G. L. & Xie, X. S. A base-excision DNA-repair protein finds intrahelical lesion bases by fast sliding in contact with DNA. Proc Natl Acad Sci USA 103, 5752-7 (2006)).\nA question is does pVIc by itself slide on DNA. To address this possibility, Applicants performed a sliding assay (Blainey et al., 2012, Activated Adenovirus Proteinase Slides Along Viral DNA Via One-Dimensional Diffusion to Locate and Process its Substrate and Blainey et al., 2009, Nonspecifically bound proteins spin while diffusing along DNA. Nat Struct Mol Biol 16, 1224-1229 and Blainey et al., 2006, A base-excision DNA-repair protein finds intrahelical lesion bases by fast sliding in contact with DNA. Proc Natl Acad Sci USA 103, 5752-5757) using pVIc labeled with Cy3B at Cys10′. […] The sliding assay, based upon total internal reflection fluorescence microscopy, used phage λ DNA molecules (48,502 base pairs) attached at one end to a glass cover slip surface by a biotin-streptavidin linkage. The area of the cover slip with DNA was placed within a flow cell. […]"}, "AVP [1]": {"biological_target": "T1, AVP (Human adenovirus C serotype 2, UniProt P03252)", "T1 sequence (P03252 whole entry)": "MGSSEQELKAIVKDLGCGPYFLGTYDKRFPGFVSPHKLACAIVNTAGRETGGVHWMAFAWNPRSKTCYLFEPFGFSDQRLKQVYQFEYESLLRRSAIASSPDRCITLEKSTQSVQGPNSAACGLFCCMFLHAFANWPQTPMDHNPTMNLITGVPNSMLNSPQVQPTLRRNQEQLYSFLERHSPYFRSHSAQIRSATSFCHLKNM", "conditions": "cited from earlier work"}, "dsDNA [2]": {"biological_target": "dsDNA", "assay_type": "binding"}, "[3]": {"system": "virion precursor proteins in heat-disrupted Ad2 ts-1 virions", "test": "Processing of virion precursor proteins in heat-disrupted ts-1 virus", "assay_type": "biochemical"}, "dsDNA [4]": {"biological_target": "dsDNA", "conditions": "12-mer dsDNA, pH 7; McGrath et al. 2001; read-out: KD(app.); cited from earlier work"}, "AVP [5]": {"biological_target": "T1, AVP", "description": "Assays contained 3.38 μM pVI, 6.54 μM AVP and either 3.38 μM 36 bp dsDNA or no DNA. After the indicated time intervals, aliquots were removed and assayed for enzymatic activity. 100% activity is the enzyme activity of 3.38 μM AVP-pVIc complexes bound to DNA. (∘) plus DNA, (∇) minus DNA. […] After 30 min. at 21° C., the amount of AVP-pVIc formed was assayed. (C) SDS-PAGE (15% polyacrylamide gel) analysis of the reactions in (B) except that the concentrations of pVI, AVP and DNA were 26-fold higher. The DNA concentration in the reactions fractionated on the gel increased from left to right. In B and C, parentheses including the same number indicates the ratio of protein to DNA in B and C is the same.\nAnother question is if DNA is required for the activation of AVP by pVI. Applicants repeated the experiment but in the presence of dsDNA.\nTo see if both enzyme (AVP) and substrate (pVI) must be on the same molecule of DNA for activation to occur or whether they can interact when bound to different DNA molecules, Applicants incubated increasing concentrations of DNA with a mixture of AVP and pVI, each at a concentration such that both should bind to DNA at any DNA concentration. And then Applicants assayed for enzyme activation (FIG. 6B)."}, "Ad2 hexon [6]": {"biological_target": "T2, Ad2 hexon (human adenovirus serotype 2 (Ad2), UniProt P03277 2-968)", "T2 construct": "also called hexon trimer; major capsid protein hexon", "T2 sequence (P03277 2-968 limits assumed)": "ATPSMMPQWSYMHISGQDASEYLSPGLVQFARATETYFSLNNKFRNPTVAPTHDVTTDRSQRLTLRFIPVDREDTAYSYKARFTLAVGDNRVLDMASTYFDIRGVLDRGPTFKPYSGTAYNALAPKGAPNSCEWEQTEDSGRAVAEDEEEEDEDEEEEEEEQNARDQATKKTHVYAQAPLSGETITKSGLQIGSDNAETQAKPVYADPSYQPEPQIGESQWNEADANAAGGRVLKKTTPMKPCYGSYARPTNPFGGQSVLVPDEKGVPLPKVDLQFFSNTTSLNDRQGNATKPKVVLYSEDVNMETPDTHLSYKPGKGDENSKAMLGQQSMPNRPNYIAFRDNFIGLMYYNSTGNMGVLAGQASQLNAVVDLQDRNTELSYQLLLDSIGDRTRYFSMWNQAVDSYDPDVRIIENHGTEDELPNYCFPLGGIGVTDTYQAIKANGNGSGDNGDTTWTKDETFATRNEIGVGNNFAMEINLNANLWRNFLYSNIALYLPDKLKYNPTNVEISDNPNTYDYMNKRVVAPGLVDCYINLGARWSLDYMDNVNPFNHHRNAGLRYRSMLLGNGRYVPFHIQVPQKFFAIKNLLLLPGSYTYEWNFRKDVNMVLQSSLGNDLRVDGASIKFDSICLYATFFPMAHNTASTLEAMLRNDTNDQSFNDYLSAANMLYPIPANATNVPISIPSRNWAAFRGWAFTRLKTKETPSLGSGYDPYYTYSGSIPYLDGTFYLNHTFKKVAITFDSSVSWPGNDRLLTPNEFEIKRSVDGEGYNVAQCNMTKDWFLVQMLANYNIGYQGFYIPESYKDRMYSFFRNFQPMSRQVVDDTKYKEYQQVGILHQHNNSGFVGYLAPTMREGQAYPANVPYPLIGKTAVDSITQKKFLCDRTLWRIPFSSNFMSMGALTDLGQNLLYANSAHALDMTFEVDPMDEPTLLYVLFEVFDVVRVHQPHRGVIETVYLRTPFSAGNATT", "test": "fluorescence quenching; 1 nM Cy3B-pVI titrated with hexon (monomer concentrations), 20 mM Hepes pH 7, 150 mM NaCl"}, "[7]": {"test": "Detergent requirement for solubility, dynamic light scattering", "assay_type": "physicochemical", "text": "Briefly, the gene for pVI and an expressible gene of VI were synthesized by PCR and inserted into expression vectors. The vectors for pVI and VI were used to transform Escherichia coli BL21 (DE3) Codon Plus cells. Recombinant proteins were expressed in autoinduction media (Studier, F. W. (2005) Protein Expr. Purif. 41, 207-234). Purification of pVI and VI was accomplished by cation-exchange and size exclusion chromatography. The proteins were about 99% pure. pVI and VI required a detergent to keep them in solution. Below a concentration of DDM of 0.0125%, the proteins were insoluble, as determined by dynamic light scattering."}, "Ad2 hexon [8]": {"biological_target": "T2, Ad2 hexon", "test": "summary sentence of Example 1; fluorescence titration of Cy3B-pVI with hexon"}, "Ad2 hexon [9]": {"biological_target": "T2, Ad2 hexon", "test": "fluorescence anisotropy under tight binding conditions; 20 nM Cy3B-pVI titrated with hexon"}}, "note": "Values joined by “and” are separate entries in the source; they are usually repeats but may differ in a detail not shown here. Equal entries are not always repeated. “Also recorded” adds a separate entry of the source. Where two headings read alike, the source gives them in different places.", "data": [{"molecule": "SGPSIVHRKCF [11-Actin-C, last 11 amino acids of β-actin]", "values": [{"measurement": "One-Dimensional Diffusion Constant (mean D1 ± SEM)", "setting": "lambda DNA", "result": "6.40 (bp)^2/s × 10^−6"}]}, {"molecule": "SFRRCGLRQVK [Random peptide, reference compound]", "values": [{"measurement": "sliding along DNA (in words)", "setting": "lambda DNA", "result": "No Diffusion"}, {"measurement": "sliding along DNA (in words)", "setting": "lambda DNA; listed as SFRRCGLRQVK", "result": "No one-dimensional diffusion of the peptide was observed; also recorded: does not slide along the DNA"}, {"measurement": "cofactor activity in stimulating AVP", "setting": "AVP [1]; up to a concentration of 60 M, Brown and Mangel 2004", "result": "did not act like a cofactor in stimulating AVP"}, {"measurement": "Kd", "setting": "dsDNA [2]; 12-mer dsDNA, pH 8, peptide labeled at Cys5′ with Cy3B, read-out: Kd(app.)", "result": "646 ± 75", "unit": "nM"}]}, {"molecule": "AVP: adenovirus proteinase, a 23 kDa cysteine proteinase", "values": [{"measurement": "processing of precursor proteins after DNase treatment", "setting": "[3]; heat disrupted ts-1 virus incubated with DNase, 2 or 24 hours", "result": "no processing of pVI or the other precursor proteins was observed"}, {"measurement": "time within which all pVI was processed", "setting": "[3]; heat disrupted ts-1 virus, DNA present", "result": "≤ 24", "unit": "hours"}, {"measurement": "sliding along DNA (in words)", "setting": "lambda DNA", "result": "does not slide effectively along DNA"}, {"measurement": "Kd", "setting": "dsDNA [4]", "result": "63 nM and 63.1 nM"}, {"measurement": "increase of relative kcat/Km of AVP", "setting": "AVP [1]; in the presence of DNA", "result": 110, "unit": "fold"}, {"measurement": "increase of relative kcat/Km of AVP", "setting": "AVP [1]; in the presence of pVIc", "result": 1130, "unit": "fold"}]}, {"molecule": "SIVHRKCF [8-Actin-C, 8-amino acid peptide from the C-terminus of β-actin]", "values": [{"measurement": "One-Dimensional Diffusion Constant (mean D1 ± SEM)", "setting": "lambda DNA", "result": "5.45 (bp)^2/s × 10^−6"}, {"measurement": "Kd", "setting": "dsDNA [2]; 12-mer dsDNA, pH 7, Cy3B label on peptide, read-out: Kd(app.)", "result": "5 ± 0.78", "unit": "nM"}]}, {"molecule": "precursor to adenovirus protein VI, pVI (other, range 1-250; also called Cy3B-pVI; adenovirus precursor protein pVI) MEDINFASLAPRHGSRPFMGNWQDIGTSNMSGGAFSWGSLWSGIKNFGSTIKNYGSKAWNSSTGQMLRDKLKEQNFQQKVVDGLASGISGVVDLANQAVQNKINSKLDPRPPVEEPPPAVETVSPEGRGEKRPRPDREETLVTQIDEPPSYEEALKQGLPTTRPIAPMATGVLGQHTPVTLDLPPPADTQQKPVLPGPSAVVVTRPSRASLRRAASGPRSMRPVASGNWQSTLNSIVGLGVQSLKRRRCF", "values": [{"measurement": "one-dimensional diffusion constant", "setting": "lambda DNA", "result": "1.45×10^6"}, {"measurement": "one-dimensional diffusion constant (mean)", "setting": "lambda DNA; flow-stretched lambda DNA, low salt", "result": "1.45±0.13×10^6 (bp)^2/s and 1.45×10^6 (bp)^2/s"}, {"measurement": "rate of AVP activation relative to rate at peak DNA concentration (50 nM)", "setting": "AVP [5]; 77 nM pVI, 130 nM AVP, 320 nM 36-mer dsDNA", "result": 12, "unit": "%"}, {"measurement": "pVI cleaved and used to form active AVP-pVIc complexes", "setting": "AVP [5]; 3.38 μM pVI, 6.54 μM AVP, 3.38 μM 36 bp dsDNA, by one hour", "result": 100, "unit": "%"}, {"measurement": "enzymatic activity after mixing AVP with pVI", "setting": "AVP [5]; no DNA", "result": "no enzymatic activity was detected"}, {"measurement": "time by which all pVI had disappeared (SDS-PAGE)", "setting": "AVP [5]; with AVP and 36 bp dsDNA", "result": "≤ 10", "unit": "minutes"}, {"measurement": "Kd", "setting": "Ad2 hexon [6]", "result": 1.8, "unit": "nM"}, {"measurement": "minimum DDM concentration required to remain in solution", "setting": "[7]", "result": 0.0125, "unit": "%"}, {"measurement": "Kd", "setting": "Ad2 hexon [8]", "result": "1.9 nM and 1.85 nM"}, {"measurement": "stoichiometry of binding of pVI to hexon monomer", "setting": "Ad2 hexon [9]", "result": 1, "unit": "pVI per hexon monomer"}, {"measurement": "Kd", "setting": "dsDNA [2]; 12-mer dsDNA, 0.02 M NaCl, read-out: KD", "result": 55, "unit": "nM"}, {"measurement": "Kd", "setting": "dsDNA [2]; 12-mer dsDNA, 0.03 M NaCl, read-out: KD", "result": 155, "unit": "nM"}, {"measurement": "Kd", "setting": "dsDNA [2]; 12-mer dsDNA, 0.04 M NaCl, read-out: KD", "result": 328, "unit": "nM"}, {"measurement": "Kd", "setting": "dsDNA [2]; 12-mer dsDNA, 0.05 M NaCl, read-out: KD", "result": 449, "unit": "nM"}, {"measurement": "Kd", "setting": "dsDNA [2]; 12-mer dsDNA, 0.06 M NaCl, read-out: KD", "result": 1040, "unit": "nM"}, {"measurement": "Kd", "setting": "dsDNA [2]; 33-mer dsDNA, 1 mM MgCl2, buffer B pH 8, 21° C., read-out: KD(app.)", "result": 35, "unit": "nM"}]}]}
